Results: publication PMC3458246 (Scientific Reports, 2012)

Molecular target: the molecule itself
Experiment: SEC

B1: Death Associated Protein Kinase 1 (DAPK1) K42W, HA tagged, kinase dead (enzyme, human, UniProt P53355 1-1430, looked up)
chain: MTVFRQENVDDYYDTGEELGSGQFAVVKKCREKSTGLQYAAWFIKKRRTKSSRRGVSREDIEREVSILKEIQHPNVITLHEVYENKTDVILILELVAGGELFDFLAEKESLTEEEATEFLKQILNGVYYLHSLQIAHFDLKPENIMLLDRNVPKPRIKIIDFGLAHKIDFGNEFKNIFGTPEFVAPEIVNYEPLGLEADMWSIGVITYILLSGASPFLGDTKQETLANVSAVNYEFEDEYFSNTSALAKDFIRRLLVKDPKKRMTIQDSLQHPWIKPKDTQQALSRKASAVNMEKFKKFAARKKWKQSVRLISLCQRLSRSFLSRSNMSVARSDDTLDEEDSFVMKAIIHAINDDNVPGLQHLLGSLSNYDVNQPNKHGTPPLLIAAGCGNIQILQLLIKRGSRIDVQDKGGSNAVYWAARHGHVDTLKFLSENKCPLDVKDKSGEMALHVAARYGHADVAQLLCSFGSNPNIQDKEEETPLHCAAWHGYYSVAKALCEAGCNVNIKNREGETPLLTASARGYHDIVECLAEHGADLNACDKDGHIALHLAVRRCQMEVIKTLLSQGCFVDYQDRHGNTPLHVACKDGNMPIVVALCEANCNLDISNKYGRTPLHLAANNGILDVVRYLCLMGASVEALTTDGKTAEDLARSEQHEHVAGLLARLRKDTHRGLFIQQLRPTQNLQPRIKLKLFGHSGSGKTTLVESLKCGLLRSFFRRRRPRLSSTNSSRFPPSPLASKPTVSVSINNLYPGCENVSVRSRSMMFEPGLTKGMLEVFVAPTHHPHCSADDQSTKAIDIQNAYLNGVGDFSVWEFSGNPVYFCCYDYFAANDPTSIHVVVFSLEEPYEIQLNQVIFWLSFLKSLVPVEEPIAFGGKLKNPLQVVLVATHADIMNVPRPAGGEFGYDKDTSLLKEIRNRFGNDLHISNKLFVLDAGASGSKDMKVLRNHLQEIRSQIVSVCPPMTHLCEKIISTLPSWRKLNGPNQLMSLQQFVYDVQDQLNPLASEEDLRRIAQQLHSTGEINIMQSETVQDVLLLDPRWLCTNVLGKLLSVETPRALHHYRGRYTVEDIQRLVPDSDVEELLQILDAMDICARDLSSGTMVDVPALIKTDNLHRSWADEEDEVMVYGGVRIVPVEHLTPFPCGIFHKVQVNLCRWIHQQSTEGDADIRLWVNGCKLANRGAELLVLLVNHGQGIEVQVRGLETEKIKCCLLLDSVCSTIENVMATTLPGLLTVKHYLSPQQLREHHEPVMIYQPRDFFRAQTLKETSLTNTMGGYKESFSSIMCFGCHDVYSQASLGMDIHASDLNLLTRRKLSRLLDPPDPLGKDWCLLAMNLGLPDLVAKYNTSNGAPKDFLPSPLHALLREWTTYPESTVGTLMSKLRELGRRDAADFLLKASSVFKINLDGNGQEAYASSCNSGTSYNSISSVVSR
stoichiometry N: 2
